Test [1] concerns HisSUMO-Mer2 (wild type). Put plainly: Co-expression pull-down assay (NiNTA, anti-MBP immunoblot). It is filed as binding, Saccharomyces cerevisiae. The settings on record: co-expressed in E. coli. The procedure:
Wild-type and mutant MBP-tagged Mre11-C49 and HisSUMO-tagged Mer2 were co-expressed in 50 mL of E. coli BL21 cultures and purified by affinity chromatography on Ni-NTA resin following a procedure similar to that described above. Briefly, cells were lysed by sonication and centrifuged at maximum speed for 30 mins at 4 °C on a table-top centrifuge. A small fraction of the supernatant was collected as ‘Input’ and the remainder was incubated with 120 µL Ni-NTA resin, pre-equilibrated with wash buffer (25 mM HEPES pH 7.5, 20 mM imidazole, 0.1 mM DTT, 0.1 mM PMSF, 10% glycerol), for 1 hour on a rotating wheel at 4 °C. The resin was washed twice with 2 ml in batch and five times with 2 ml on column before eluting with 250 µL of 500 mM imidazole in wash buffer. Input and elution fractions were separated by SDS-PAGE followed by immunoblotting with primary murine anti-MBP monoclonal antibody at 1:10,000 dilution (E8032S, NEB) and secondary goat anti-mouse IgG-HRP conjugated at 1:10,000 dilution (AP308P, Chemicon).
(In general: In western blotting, separated proteins are transferred to a membrane and probed.)

The test system of test [2] is Mer2. Put plainly: Yeast two-hybrid. It counts as binding, Saccharomyces cerevisiae. As to conditions: SC-Leu-Ura-His + 25 mM 3-AT. The procedure: Bait and prey plasmids were co-transformed into yWL365 using the standard ‘LiAc’-based transformation and plated on SC-Leu-Ura selective media. At least four independent transformants were tested for Mer2-Mre11 interaction by spotting a dilution series on SC-Leu- Ura-His + 25 mM 3-AT (3-amino-1,2,4-triazole) and growing for 4-5 days at 30 °C.

B1: Mre11-LLK: Mre11 (or its C49 fragment) with LLK residues mutated to alanine (protein, UniProt P32829 1-692, looked up, variant L683A L686A K690A)
Double-strand break repair …: MDYPDPDTIRILITTDNHVGYNENDPITGDDSWKTFHEVMMLAKNNNVDMVVQSGDLFHVNKPSKKSLYQVLKTLRLCCMGDKPCELELLSDPSQVFHYDEFTNVNYEDPNFNISIPVFGISGNHDDASGDSLLCPMDILHATGLINHFGKVIESDKIKVVPLLFQKGSTKLALYGLAAVRDERLFRTFKDGGVTFEVPTMREGEWFNLMCVHQNHTGHTNTAFLPEQFLPDFLDMVIWGHEHECIPNLVHNPIKNFDVLQPGSSVATSLCEAEAQPKYVFILDIKYGEAPKMTPIPLETIRTFKMKSISLQDVPHLRPHDKDATSKYLIEQVEEMIRDANEETKQKLADDGEGDMVAELPKPLIRLRVDYSAPSNTQSPIDYQVENPRRFSNRFVGRVANGNNVVQFYKKRSPVTRSKKSGINGTSISDRDVEKLFSESGGELEVQTLVNDLLNKMQLSLLPEVGLNEAVKKFVDKDEKTALKEFISHEISNEVGILSTNEEFLRTDDAEEMKALIKQVKRANSVRPTPPKENDETNFAFNGNGLDSFRSSNREVRTGSPDITQSHVDNESRITHISQAESSKPTSKPKRVRTATKKKIPAFSDSTVISDAENELGDNNDAQDDVDIDENDIIMVSTDEEDASYGLLNGRKTKTKTRPAASTKTASRRGKGRASRTPKTDIAGSALAKARK
With B1, in test [1], the “Interaction with Mer2 in pulldown (in words)” value is on record as “strongly decreased the interaction”. Also, the “Yeast two-hybrid interaction with Mer2 (in words)” value in test [2] is listed as “abolished the interaction”.

Values taken from article PMC13233820, “Recruitment of Mre11 to recombination sites during meiosis” (Nature Communications, 2026).
